Experimental data: patent publication CN112010972A (REYOUNG SUZHOU BIOPHARMACEUTICAL CO LTD, dated 2020)

B1: 抗LAG-3人鼠嵌合抗体 78H3VL-78H3VH (antibody, V domains shown)
VH: EVQLQQSGPVLAKPGASVKMSCKTSGYTLTDYYMNWVKQSHGKSLEWIGIINPYNGDTSYNQRFKGKATLTVDKSSSTAYMELNSLTSEDSAVYYCARDDGYYVDYFDYWGQGTTLTVSS
VL: DIQMTQSPSSLSASLGERVSLTCRASQDIGNSLNWLQQEPDGTIKRLIYATSSLDSGVPKRFSGSRSGSDYSLTISSLESEDFVDYYCLQHASSPPTFGAGTKLELKR
B2: 抗LAG-3人鼠嵌合抗体 17E3VL-17E3VH (antibody, V domains shown)
VH: EVMLVESGGGLVKPGGSLKLSCAASGFTFITYAMSWVRQTPEKRLEWVASINNGGTHYPDTMKGRFTISRDNARNILYLQMSSLRSEDTAMYYCARSYNGIPHYFDYWGQGTTLTVSS
VL: DILMTQTPASLAVSLGQRATISCRTSESIDNYGVSFMNWFQQKPGQPPRLLIYAASNQGSGVPARFSGSGSGADFSLNIHPMEEDDSALYFCQQSKEVPFTFGSGTKLEIKR
B3: 抗LAG-3人鼠嵌合抗体 29VL-17E3VH (antibody, V domains shown)
VH: B2 VH
VL: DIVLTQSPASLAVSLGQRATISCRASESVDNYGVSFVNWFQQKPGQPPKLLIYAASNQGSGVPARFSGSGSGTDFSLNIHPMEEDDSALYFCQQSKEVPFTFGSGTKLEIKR

Biological target: T1, 带有His标签的人LAG-3蛋白的胞外结构域(Acro) (human, UniProt P18627 23-450)
T1 construct: extracellular domain; Bought protein (Acro); also called Human-LAG-3-His; 抗原; not shown: His tag
T1 sequence (looked up): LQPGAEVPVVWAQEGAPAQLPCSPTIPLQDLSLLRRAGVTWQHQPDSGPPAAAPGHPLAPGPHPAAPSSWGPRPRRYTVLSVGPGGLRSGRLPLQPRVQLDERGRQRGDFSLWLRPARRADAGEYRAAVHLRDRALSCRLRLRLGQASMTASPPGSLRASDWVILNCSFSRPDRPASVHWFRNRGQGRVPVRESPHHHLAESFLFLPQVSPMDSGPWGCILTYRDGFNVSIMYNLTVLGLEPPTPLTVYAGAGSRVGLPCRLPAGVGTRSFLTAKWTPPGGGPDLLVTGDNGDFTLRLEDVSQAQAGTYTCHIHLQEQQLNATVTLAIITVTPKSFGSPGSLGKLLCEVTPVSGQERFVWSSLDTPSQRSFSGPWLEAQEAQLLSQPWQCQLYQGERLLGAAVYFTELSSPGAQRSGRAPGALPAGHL
Assay: SPR (Biacore), supernatant captured on Protein A chip, 100 nM human LAG-3 as analyte, 1:1 fit

Kd, ~100 pM:
B1
B2
B3
